Here are results for 2 molecules from paper PMC10146092, “Highly Sensitive β-Lactoglobulin Fluorescent Aptamer Biosensors Based on Tungsten Disulfide Nanosheets and DNase I-Assisted Signal Amplification”.

One data set deals with ovalbumin (UniProt P01012 2-386). The experiment in a line: fluorescence recovery on WS2 nanosheets; 10 ug/mL protein; no significant recovery; 200 nM FAM-aptamer, 750 ug/mL WS2 (10 min, room temperature), then β-Lg with 0.04 U/uL DNase I, 40 min at 37 °C; ex 490/em 518 nm; buffer, salt and pH not given in the material. Particulars: protein: commercial; label: 5'-FAM.
Sequence of ovalbumin (P01012 2-386): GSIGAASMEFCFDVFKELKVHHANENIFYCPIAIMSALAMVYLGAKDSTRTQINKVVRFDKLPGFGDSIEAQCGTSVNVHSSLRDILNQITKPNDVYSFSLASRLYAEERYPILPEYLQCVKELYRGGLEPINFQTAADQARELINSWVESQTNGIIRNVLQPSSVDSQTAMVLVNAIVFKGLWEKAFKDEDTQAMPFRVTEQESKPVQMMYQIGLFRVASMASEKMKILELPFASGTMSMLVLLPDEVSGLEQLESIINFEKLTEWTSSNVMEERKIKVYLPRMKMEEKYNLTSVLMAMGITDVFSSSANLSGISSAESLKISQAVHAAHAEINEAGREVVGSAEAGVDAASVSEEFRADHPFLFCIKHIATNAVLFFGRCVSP
For data set [1], the target named is T1, beta-lactoglobulin (β-Lg) (Bos taurus (cow's milk)?, UniProt P02754 17-178).
T1 sequence: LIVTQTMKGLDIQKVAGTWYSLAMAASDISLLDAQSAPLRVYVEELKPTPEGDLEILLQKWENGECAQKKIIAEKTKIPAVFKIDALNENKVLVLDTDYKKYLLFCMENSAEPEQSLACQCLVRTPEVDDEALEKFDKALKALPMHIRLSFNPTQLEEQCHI
In words: fluorescence recovery on WS2 nanosheets (FRET quenching); no DNase I; WS2 nanosheets; LOD 35 ng/mL; 200 nM FAM-aptamer, 750 ug/mL WS2 (10 min, room temperature), then β-Lg with 0.04 U/uL DNase I, 40 min at 37 °C; ex 490/em 518 nm; buffer, salt and pH not given in the material. To be noted: protein: commercial; chain copies: 2; label: 5'-FAM.

For data set [2], the target named is T1, beta-lactoglobulin (β-Lg). In words: fluorescence recovery on WS2 nanosheets, DNase I amplified; DNase I; β-Lg 0.1-100 ug/mL; little fluorescence change, independent of β-Lg; 200 nM FAM-aptamer, 750 ug/mL WS2 (10 min, room temperature), then β-Lg with 0.04 U/uL DNase I, 40 min at 37 °C; ex 490/em 518 nm; buffer, salt and pH not given in the material. Particulars: protein: commercial; chain copies: 2; label: 5'-FAM.

B1: β-Lg aptamer (ssDNA)
DNA: CGACGATCGGACCGCAGTACCCACAGCCCCAACATCATGCCCATCCGTGTGTG
In the case of B1, the binding result is reported as “no binding” with ovalbumin and “binds” in data set [1].

B2: negative control DNA sequence (ssDNA)
DNA: CTAAGTCTGAAACATTACAGCTTGCTACACGAGAAGAGCCGCACGAGAACCCT
As for B2, the binding result in data set [2] was “no binding”.
